Here are results for two molecules from paper PMC4509788 (Molecular cell, 2010).

Assay [1] concerns the target T1, GST-MAGE-G1 (human, UniProt Q96MG7 1-304).
T1 sequence (looked up): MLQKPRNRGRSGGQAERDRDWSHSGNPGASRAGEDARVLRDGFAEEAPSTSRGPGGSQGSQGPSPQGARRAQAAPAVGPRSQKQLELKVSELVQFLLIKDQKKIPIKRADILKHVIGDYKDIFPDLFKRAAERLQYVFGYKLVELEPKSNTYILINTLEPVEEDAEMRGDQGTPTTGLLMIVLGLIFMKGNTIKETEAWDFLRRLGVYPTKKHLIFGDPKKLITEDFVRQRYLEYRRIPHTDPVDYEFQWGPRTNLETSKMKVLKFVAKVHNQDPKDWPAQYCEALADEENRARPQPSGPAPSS
In words: pull-down.

The target of assay [2] is T2, MAGE-G1 (full length, coexpressed with NSE1) (human, UniProt Q96MG7 1-304).
T2 sequence (looked up): T1 sequence (looked up)
Nature of the assay: co-purification after coexpression in bacteria.

B1: NSE1 (purified recombinant) (natural protein, UniProt Q8WV22 1-266, looked up)
chain: MQGSTRRMGVMTDVHRRFLQLLMTHGVLEEWDVKRLQTHCYKVHDRNATVDKLEDFINNINSVLESLYIEIKRGVTEDDGRPIYALVNLATTSISKMATDFAENELDLFRKALELIIDSETGFASSTNILNLVDQLKGKKMRKKEAEQVLQKFVQNKWLIEKEGEFTLHGRAILEMEQYIRETYPDAVKICNICHSLLIQGQSCETCGIRMHLPCVAKYFQSNAEPRCPHCNDYWPHEIPKVFDPEKERESGVLKSNKKSLRSRQH
Turning to B1, the binding result in assay [1] is given as “binds”.

B2: NSE1 (full length, coexpressed with MAGE-G1) (natural protein, UniProt Q8WV22 1-266, looked up)
chain: B1 chain
Consider B2, for which the binding result in assay [2] is listed as “binds”.
